In US20260242478A1 (published 2026):
Where no end group is shown, it is not given here.

Experiments:
[1] = biological target: T1, 006 PSMA Fab (biotinylated (site not stated)); test: clonal phage ELISA on biotinylated PSMA Fab captured on neutravidin plates, anti-M13-HRP detection;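 also: crude clonal phage supernatants added to wells preincubated with PSMA antigen or with blocking buffer only (no wash between), briefly incubated, then washed before detecting bound phage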
T1 construct: Biotinylated PSMA Fab captured on neutravidin coated plates in the panning ELISA; also called Anti-PSMA Fab

[2] = biological target: T1, 006 PSMA Fab; test: clonal phage ELISA on captured PSMA Fab, wells pre-incubated with PSMA antigen as competitor
Protocol: (§1) Clonal phage were harvested as crude supernatants and screened via standard ELISAs. […] Prior to the addition of clonal phage. wells were incubated with blocking buffer and PSMA antigen or blocking buffer alone. Without washing or aspirating, clonal phage supernatants were then added to the wells and incubated for a short time. Wells were then washed followed by detection of bound phage using a horse radish conjugated anti-M13 antibody.

[3] = biological target: T2, 006 PSMA Fab; test: clonal phage ELISA on biotinylated PSMA Fab captured on neutravidin plates, anti-M13 HRP detection;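 also: crude clonal phage supernatants tested, before phage were added, wells were pretreated with PSMA antigen in blocking buffer or with blocking buffer only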
T2 construct: also called Anti-PSMA Fab
Protocol: as §1

[4] = biological target: T2, 006 PSMA Fab; test: clonal phage ELISA on captured PSMA Fab pre-incubated with PSMA antigen as competitor, anti-M13 HRP detection;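 also: crude clonal phage supernatants tested by ELISA, wells first treated with blocking buffer plus PSMA antigen, bound phage read out via HRP-linked anti-M13 antibody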
Protocol: as §1

[5] = biological target: T3, PSMA Fab; test: phage ELISA; biotinylated PSMA Fab on neutravidin plate, blocking buffer alone, anti-M13 HRP detection
T3 construct: also called Anti-PSMA Fab; 006 PSMA Fab
Protocol: as §1

[6] = biological target: T3, PSMA Fab; test: phage ELISA; biotinylated PSMA Fab on neutravidin plate, pre-incubated with PSMA antigen as competitor, anti-M13 HRP detection
Protocol: as §1

Binder | phage binding ELISA signal [1] | phage binding ELISA signal in presence of PSMA antigen [2] | Phage binding ELISA signal, Anti-PSMA Fab [3] | Phage binding ELISA signal, Anti-PSMA Fab with PSMA antigen [4] | other results
GEIRCSPAWMCDGF (Clone of the Peptide-180 optimisation library, tested as clonal phage supernatant (peptide fused to pIII of the bacteriophage)) [Phage-2757] | 0.682 | 0.104 | – | – | –
MVHWCTPSWMCSAL (Clone of the Peptide-180 optimisation library, tested as clonal phage supernatant (peptide fused to pIII of the bacteriophage); Row read against Peptide-180: MVHWCTPSWMCSAL) [Phage-2758] | 0.677 | 0.1 | – | – | –
MQKMCIPTWMCDGL (Clone of the Peptide-180 optimisation library, tested as clonal phage supernatant (peptide fused to pIII of the bacteriophage)) [Phage-2759] | 0.673 | 0.0817 | – | – | –
PVKMCTPAWMCSER (Clone of the Peptide-180 optimisation library, tested as clonal phage supernatant (peptide fused to pIII of the bacteriophage)) [Phage-2760] | 0.67 | 0.0866 | – | – | –
PWKWCTPVWMCQGV (Clone of the Peptide-180 optimisation library, tested as clonal phage supernatant (peptide fused to pIII of the bacteriophage)) [Phage-2761] | 0.669 | 0.0937 | – | – | –
WINWCTPQWMCADL (cysteine pairing not given here; also: fused to pIII, displayed on bacteriophage, Clone of the Peptide-180 optimisation library, tested as clonal phage supernatant (peptide fused to pIII of the bacteriophage)) [Phage-2762] | 0.662 | 0.13 | – | – | –
FEKWCTPTWMCWPY (Clone of the Peptide-180 optimisation library, tested as clonal phage supernatant (peptide fused to pIII of the bacteriophage)) [Phage-2763] | 0.661 | 0.0829 | – | – | –
ENHWCRPMWMCETI (Clone of the Peptide-180 optimisation library, tested as clonal phage supernatant (peptide fused to pIII of the bacteriophage)) [Phage-2764] | 0.66 | 0.0683 | – | – | –
HAIWCIPEWMCAFN (cysteine pairing not given here; also: fused to pIII, displayed on bacteriophage, Clone of the Peptide-180 optimisation library, tested as clonal phage supernatant (peptide fused to pIII of the bacteriophage)) [Phage-2765] | 0.658 | 0.124 | – | – | –
VEKWCTPAWMCSTS (Clone of the Peptide-180 optimisation library, tested as clonal phage supernatant (peptide fused to pIII of the bacteriophage)) [Phage-2766] | 0.657 | 0.065 | – | – | –
DVTWCIPPWMCMYN (Clone of the Peptide-180 optimisation library, tested as clonal phage supernatant (peptide fused to pIII of the bacteriophage)) [Phage-2767] | 0.655 | 0.0814 | – | – | –
AENWCTPRWMCEGI (Clone of the Peptide-180 optimisation library, tested as clonal phage supernatant (peptide fused to pIII of the bacteriophage)) [Phage-2768] | 0.655 | 0.201 | – | – | –
SYKWCTPDWMCVAV (Clone of the Peptide-180 optimisation library, tested as clonal phage supernatant (peptide fused to pIII of the bacteriophage)) [Phage-2769] | 0.651 | 0.0709 | – | – | –
QIKWCIPMWMCEGE (Clone of the Peptide-180 optimisation library, tested as clonal phage supernatant (peptide fused to pIII of the bacteriophage)) [Phage-2770] | 0.651 | 0.0554 | – | – | –
VAKLCTPAWMCSAM (cysteine pairing not given here; also: fused to pIII of bacteriophage, linker and pIII sequence not given here, Clonal phage of the Peptide-180 optimization library, tested as crude phage supernatant; not shown: fused to pIII of the bacteriophage) [Phage-2835] | – | – | 0.431 | 0.0638 | –
DWKLCKPTWMCESL (cysteine pairing not given here; also: fused to pIII of bacteriophage, linker and pIII sequence not given here, Clonal phage of the Peptide-180 optimization library, tested as crude phage supernatant; not shown: fused to pIII of the bacteriophage) [Phage-2836] | – | – | 0.43 | 0.0664 | –
VDRWCTPPWMCDWQ (cysteine pairing not given here; also: fused to pIII of bacteriophage, linker and pIII sequence not given here, Clonal phage of the Peptide-180 optimization library, tested as crude phage supernatant; not shown: fused to pIII of the bacteriophage) [Phage-2837] | – | – | 0.429 | 0.0626 | –

Binder | phage binding ELISA signal [1] | phage binding ELISA signal in presence of PSMA antigen [2] | Phage binding ELISA signal, Anti-PSMA Fab [3] | Phage binding ELISA signal, Anti-PSMA Fab with PSMA antigen [4] | other results
HPKLCTPEWMCVIQ (cysteine pairing not given here; also: fused to pIII of bacteriophage, linker and pIII sequence not given here, Clonal phage of the Peptide-180 optimization library, tested as crude phage supernatant; not shown: fused to pIII of the bacteriophage) [Phage-2838] | – | – | 0.424 | 0.104 | –
DSHWCMPVWMCMGL (cysteine pairing not given here; also: fused to pIII of bacteriophage, linker and pIII sequence not given here, Clonal phage of the Peptide-180 optimization library, tested as crude phage supernatant; not shown: fused to pIII of the bacteriophage) [Phage-2839] | – | – | 0.423 | 0.156 | –
EPQWCIPKWMCDHM (cysteine pairing not given here; also: fused to pIII of bacteriophage, linker and pIII sequence not given here, Clonal phage of the Peptide-180 optimization library, tested as crude phage supernatant; not shown: fused to pIII of the bacteriophage) [Phage-2840] | – | – | 0.423 | 0.0608 | –
ESIRCTPAWMCVEM (cysteine pairing not given here; also: fused to pIII of bacteriophage, linker and pIII sequence not given here, Clonal phage of the Peptide-180 optimization library, tested as crude phage supernatant; not shown: fused to pIII of the bacteriophage) [Phage-2841] | – | – | 0.421 | 0.0725 | –
PEVMCRPVWMCLGF (cysteine pairing not given here; also: fused to phage pIII, linker not given here, Clonal phage of the Peptide-180 optimization library, tested as crude phage supernatant; not shown: fused to pIII of the bacteriophage) [Phage-2842] | – | – | 2.51 | 0.112 | –
MLPICKPDWMCAGF (cysteine pairing not given here; also: fused to pIII of bacteriophage, linker and pIII sequence not given here, Clonal phage of the Peptide-180 optimization library, tested as crude phage supernatant; not shown: fused to pIII of the bacteriophage) [Phage-2843] | – | – | 2.49 | 0.0942 | –
VVAMCKPAWMCAGL (cysteine pairing not given here; also: fused to pIII of bacteriophage, linker and pIII sequence not given here, Clonal phage of the Peptide-180 optimization library, tested as crude phage supernatant; not shown: fused to pIII of the bacteriophage) [Phage-2844] | – | – | 2.48 | 0.0731 | –
WDMLCRPAWMCEGF (cysteine pairing not given here; also: fused to pIII of bacteriophage, linker and pIII sequence not given here, Clonal phage of the Peptide-180 optimization library, tested as crude phage supernatant; not shown: fused to pIII of the bacteriophage) [Phage-2845] | – | – | 2.48 | 0.157 | –
WEVRCVPEWMCVGF (cysteine pairing not given here; also: fused to pIII of bacteriophage, linker and pIII sequence not given here, Clonal phage of the Peptide-180 optimization library, tested as crude phage supernatant; not shown: fused to pIII of the bacteriophage) [Phage-2846] | – | – | 2.48 | 0.119 | –
WMPRCVPEWMCAGF (cysteine pairing not given here; also: fused to pIII of bacteriophage, linker and pIII sequence not given here, Clonal phage of the Peptide-180 optimization library, tested as crude phage supernatant; not shown: fused to pIII of the bacteriophage) [Phage-2847] | – | – | 2.48 | 0.334 | –
VMTVCKPAWMCTGF (cysteine pairing not given here; also: fused to pIII of bacteriophage, linker and pIII sequence not given here, Clonal phage of the Peptide-180 optimization library, tested as crude phage supernatant; not shown: fused to pIII of the bacteriophage) [Phage-2848] | – | – | 2.47 | 0.205 | –
VFPICKPSWMCVGM (cysteine pairing not given here; also: fused to pIII of bacteriophage, linker and pIII sequence not given here, Clonal phage of the Peptide-180 optimization library, tested as crude phage supernatant; not shown: fused to pIII of the bacteriophage) [Phage-2849] | – | – | 2.46 | 0.174 | –
EIPYCVPQWMCVAM [Phage-3434] | – | – | – | – | Phage binding ELISA signal, Anti-PSMA Fab [5]: 1.76; Phage binding ELISA signal, Anti-PSMA Fab in presence of PSMA [6]: 0.0788
VLHMCVPLWMCHGL [Phage-3435] | – | – | – | – | Phage binding ELISA signal, Anti-PSMA Fab [5]: 1.76; Phage binding ELISA signal, Anti-PSMA Fab in presence of PSMA [6]: 0.133
VKPVCKPVWMCVGF [Phage-3436] | – | – | – | – | Phage binding ELISA signal, Anti-PSMA Fab [5]: 1.76; Phage binding ELISA signal, Anti-PSMA Fab in presence of PSMA [6]: 0.122
PGPSCVPSWMCVGF [Phage-3437] | – | – | – | – | Phage binding ELISA signal, Anti-PSMA Fab [5]: 1.76; Phage binding ELISA signal, Anti-PSMA Fab in presence of PSMA [6]: 0.074
PAQMCIPQWMCNWL [Phage-3438] | – | – | – | – | Phage binding ELISA signal, Anti-PSMA Fab [5]: 1.75; Phage binding ELISA signal, Anti-PSMA Fab in presence of PSMA [6]: 0.0635
